Assay results reported in article PMC6096924, “Mechanism of activation of the BNLF2a immune evasion gene of Epstein-Barr virus by Zta”.

B1: BNLF2a ZRE1 (dsDNA)
DNA 1: ACACCTGTCCTCGCTCATCTTTCCACA
DNA 2: TGTGGAAAGATGAGCGAGGACAGGTGT
B2: BNLF2a ZRE2 (dsDNA)
DNA 1: CACCTGTTGTTGACACATTCTTTGCGC
DNA 2: GCGCAAAGAATGTGTCAACAACAGGTG
B3: BNLF2a ZRE3 (dsDNA)
DNA 1: CTTTCCATCTTGTGCCAATACACATTT
DNA 2: AAATGTGTATTGGCACAAGATGGAAAG
B4: BNLF2a ZRE4 (dsDNA)
DNA 1: TCACCTTAACTGGCACACACTCCCTTA
DNA 2: TAAGGGAGTGTGTGCCAGTTAAGGTGA
B5: BNLF2a ZRE5 (dsDNA)
DNA 1: TAAGCTACTATGACTAACCTTTCTTTA
DNA 2: TAAAGAAAGGTTAGTCATAGTAGCTTA
B6: BNLF2a ZRE1me (CpG-methylated) (dsDNA)
DNA 1: ACACCTGTCCTCGCTCATCTTTCCACA
DNA 2: TGTGGAAAGATGAGCGAGGACAGGTGT
modifications: 5-methyl-C (printed meC) at C12 of strand 1 and C15 of strand 2

Columns and labels:
Conditions in all cases: protein: recombinant; tags: His, GST (fusion); chain copies: 2; label: IR-800; blunt
[1] = target: T1, His-GST-Zta (DNA binding and dimerization region) (Epstein-Barr virus, UniProt P03206 168-245); experiment: EMSA
T1 sequence (P03206 168-245): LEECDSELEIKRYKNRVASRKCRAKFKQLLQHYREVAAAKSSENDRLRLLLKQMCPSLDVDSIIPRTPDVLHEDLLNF

[2] = target: T1, His-GST-Zta (DNA binding and …); experiment: EMSA; highest binding of the five ZREs
[3] = target: T1, His-GST-Zta (DNA binding and …); experiment: EMSA; CpG methylation; binding increased vs unmethylated ZRE1 (P<=0.01)

Binder | binding result [1] | further results
B1 | binds | –
B2 | – | binding result [2]: binds
B3 | binds | –
B4 | binds | –
B5 | binds | –
B6 | – | binding result [3]: binds
